Source: patent US20040018561

Columns and labels:
[1] = system: N-2-[(7-methoxy-2-oxo-2H-chromen-4-yl)acetyl]-D-arginyl-L-prolyl-L-leucylglycyl-6-(benzyloxy)-L-norleucyl-3-[(2,4-dinitrophenyl)amino]-L-alanyl-L-alanyl-D-arginyl-D-alpha-glutamyl-D-argininamide
[2] = system: N-2-[(7-methoxy-2-oxo-2H-chromen-4-yl)acetyl]-L-arginyl-L-prolyl-L-leucylglycyl-6-(benzyloxy)-L-norleucyl-3-[(2,4-dinitrophenyl)amino]-L-alanyl-L-alanyl-L-arginyl-L-alpha-glutamyl-L-argininamide
[3] = system: N-2-[(7-methoxy-2-oxo-2H-chromen-4-yl)acetyl]-L-arginyl-L-prolyl-L-leucylglycyl-L-leucyl-3-[(2,4-dinitrophenyl)amino]-L-alanyl-L-alanyl-D-arginyl-D-alpha-glutamyl-D-argininamide
[4] = system: N-2-[(7-methoxy-2-oxo-2H-chromen-4-yl)acetyl]-D-arginyl-L-prolyl-L-leucylglycyl-6-phenoxy-L-norleucyl-3-[(2,4-dinitrophenyl)amino]-L-alanyl-L-alanyl-D-arginyl-D-alpha-glutamyl-D-argininamide
[5] = system: N-2-[(7-methoxy-2-oxo-2H-chromen-4-yl)acetyl]-L-arginyl-L-prolyl-L-leucylglycyl-L-leucyl-3-[(2,4-dinitrophenyl)amino]-L-alanyl-L-alanyl-L-arginyl-L-alpha-glutamyl-L-argininamide
[6] = system: N-2-[(7-methoxy-2-oxo-2H-chromen-4-yl)acetyl]-D-arginyl-L-prolyl-L-leucylglycyl-L-leucyl-3-[(2,4-dinitrophenyl)amino]-L-alanyl-L-alanyl-D-arginyl-D-alpha-glutamyl-D-argininamide

Chain of MMP-9 (chain, as listed by the source): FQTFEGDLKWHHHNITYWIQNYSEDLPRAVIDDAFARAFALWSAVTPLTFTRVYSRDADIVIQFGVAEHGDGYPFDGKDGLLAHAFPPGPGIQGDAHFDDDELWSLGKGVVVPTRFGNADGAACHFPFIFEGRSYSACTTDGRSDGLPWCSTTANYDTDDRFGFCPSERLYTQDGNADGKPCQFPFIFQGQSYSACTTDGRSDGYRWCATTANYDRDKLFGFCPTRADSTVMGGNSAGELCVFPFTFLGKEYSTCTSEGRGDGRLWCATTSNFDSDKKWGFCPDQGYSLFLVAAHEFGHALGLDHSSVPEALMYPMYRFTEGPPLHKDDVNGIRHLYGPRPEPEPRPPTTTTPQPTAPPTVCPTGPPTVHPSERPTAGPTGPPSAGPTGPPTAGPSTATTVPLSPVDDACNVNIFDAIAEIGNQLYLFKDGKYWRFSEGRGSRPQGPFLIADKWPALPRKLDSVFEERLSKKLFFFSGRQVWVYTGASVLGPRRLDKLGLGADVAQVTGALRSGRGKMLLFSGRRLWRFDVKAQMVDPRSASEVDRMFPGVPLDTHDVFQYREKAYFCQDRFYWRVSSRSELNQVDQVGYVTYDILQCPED
Chain of MMP-3 (chain, as listed by the source): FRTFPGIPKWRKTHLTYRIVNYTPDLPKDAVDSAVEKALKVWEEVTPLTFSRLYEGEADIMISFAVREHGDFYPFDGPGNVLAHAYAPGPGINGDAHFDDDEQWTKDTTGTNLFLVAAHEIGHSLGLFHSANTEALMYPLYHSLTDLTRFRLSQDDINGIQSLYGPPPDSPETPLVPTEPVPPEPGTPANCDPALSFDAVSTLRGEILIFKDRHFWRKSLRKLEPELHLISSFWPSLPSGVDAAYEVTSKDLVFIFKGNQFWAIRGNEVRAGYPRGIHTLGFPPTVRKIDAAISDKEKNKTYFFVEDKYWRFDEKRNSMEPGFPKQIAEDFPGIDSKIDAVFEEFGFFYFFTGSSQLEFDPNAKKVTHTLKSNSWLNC
Chain of MMP-8 (chain, as listed by the source): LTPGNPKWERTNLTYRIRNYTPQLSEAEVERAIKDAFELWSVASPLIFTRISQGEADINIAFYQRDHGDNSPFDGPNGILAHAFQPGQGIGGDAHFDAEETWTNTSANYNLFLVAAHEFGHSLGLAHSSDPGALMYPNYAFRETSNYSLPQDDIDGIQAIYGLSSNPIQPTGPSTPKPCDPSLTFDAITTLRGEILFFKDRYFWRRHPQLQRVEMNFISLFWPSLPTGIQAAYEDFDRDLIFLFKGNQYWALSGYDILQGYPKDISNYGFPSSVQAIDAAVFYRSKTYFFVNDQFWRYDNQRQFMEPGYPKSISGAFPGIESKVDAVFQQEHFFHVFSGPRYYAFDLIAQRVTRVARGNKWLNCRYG

Row | Substance | Km [1] [µM] | kcat/Km [1] [M⁻¹ s⁻¹] | Km [2] [µM] | kcat/Km [2] [M⁻¹ s⁻¹] | Km [3] [µM] | kcat/Km [3] [M⁻¹ s⁻¹] | kcat/Km [4] [M⁻¹ s⁻¹] | Km [5] [µM] | kcat/Km [5] [M⁻¹ s⁻¹] | Km [6] [µM] | kcat/Km [6] [M⁻¹ s⁻¹] | Km [4] [µM]
1 | MMP-3 | 28.9 | 1600 | 85.9 | 4800 | 59.5 | 800 | 0 | 38.7 | 9800 | 14 | 6300 | 
2 | MMP-8 | 3.3 | 146000 | 9.1 | 179000 | 13.3 | 456000 | 522000 | 20.1 | 381000 | 16.7 | 139000 | 4.4
3 | MMP-9 | 3.3 | 319000 | 2.3 | 1.47e+06 | 8.2 | 1.33e+06 | 1.91e+06 | 6.2 | 1.29e+06 | 6.4 | 418000 | 1.4
4 | MMP-13 | 1.5 | 1.58e+06 | 0.9 | 4.24e+06 | 4.7 | 4.08e+06 | 2.93e+06 | 3.9 | 3.92e+06 | 9 | 296000 | 1.2
